# Results published in the DeepSol protein solubility set.
# Experiment: soluble on expression in E. coli; label from the status in PepcDB or PDB records
row,Sequence,soluble on expression in E. coli
1,SSSKFQQVEQDVKAIEVSLSARIGVSVLDTQNGEYWDYNGNQRFPLTSTFKTIACAKLLYDAEQGKVNPNSTVEIKKADLVTYSPVIEKQVGQAITLDDACFATMTTSDNTAANIILSAVGGPKGVTDFLRQIGDKETRLDRIEPDLNEGKLGDLRDTTTPKAIASTLNKFLFGSALSEMNQKKLESWMVNNQVTGNLLRSVLPAGWNIADRSGAGGFGARSITAVVWSEHQAPIIVSIYLAQTQASMEERNDAIVKIGHSIFDVYTSQSR,soluble
2,PKLVCLVSSSNSFATFLAEEIPIISNKGIGVKGIKLKAEEKVRFAMPLQD,not soluble
3,MGVITDDVTIAQQALTHYDVSDNASLRLLNLSENATYLVEDGEHQSILRVHRQDYHQPHEIESELDWLAALRTDSDVTVPTVVPARDGRRVVTVDPADSDAVPRHVVHFEMVGGAEPDEESLTLDDFQTLGRITASLHEHSQRWTRPAGFGRFSWDWEHCLGDTPRWGRWQDAEGVGASETALLTRAQDLLHRKLEEYGSGPDRYGLIHADLRLANLLVDSSTPQRTITVIDFDDCGFGWYFYDFGTAVSFIEHDPRLGEWQESWVAGYRSRRELPAADEAMLPSFVFLRRLLLLAWMGSHTHSRESATKAISYAAGSCALAERYLSSDGLRLT,not soluble
4,MSELILHHYPTSLFAEKARLMLGFKGVNWRSVTIPSIMPKPDLTALTGGYRKTPVLQIGADIYCDTALMARRLEQEKASPAFYPQGQEFAVAGLAAWADSVLFLHAVSLVFQPESMAVRFAKVPPDAAKAFIADRSMLFNGGTASRPPVEQVKHQWPTFMSRLESQLSHGGDFLFGAPSIADFSVAHTLWFLKQTPVTAPFVDDYPSVSVWLDRVLGFGHGSLSDLSSAAAIEIASNATPAPLPDETFIDPNGFKAGDKVAIAAVDYGVEAVEGELMFTGREELILRREDNRAGVVHVHFPRLGFRVEKR,soluble
5,MGSDKIHHHHHHMRKITLRSKLDGREIVFEENQNLFDIAREYQKYYRYKILAARVNNRIIELFRTPDRSGELEFLDLTDPDGLRIYQRGLVFLASLAVRKLNSEWRLKVLHSLGKGIYCEIYKGNELIVPDQNQVFAIKDKMRELVEKDLPIEKRTFYKDEAREILMKEGLVKTVNLFKYRKKRTVKLYHCDGFWAYFYGYLPPSTGRIDVFDVQPYNQGLVLVHPDPKTRELPVIHMPKLSQVFLEYARWLNVLELEYVSDLNDIIARGERHVADLMLLSEALHEKKISDIADEIAKDKRKRLILIAGPSSSGKTTFAKRLSLQLRVNGLKPVAISLDDYFVDREKTPRDENGNYDFDSIEALDIELFNRNLQDLLAGKEVVLPKFNFKTGKRMRGPTLKLEKDNIIIVEGIHGLNERLTASIPKEQKFKIYVSALTQLNIDDHNRVTTTDTRLIRRIVRDYKFRGHTAYDTLKMWPNVRKGEERNIFPFQEEADVMFNSALVYEIPVLRIFAEPLLVQVPEDVPEYSEALRLLKLLDFFLPITNIEDIPDKSILREFIGRSIFKY,not soluble
6,MGSDKIHHHHHHMITTEAWVLYAGPEQTKKHAPVPGELRRETFQFAGLEDDEALVEPLYGSWEANLDHALSRNPVDICRQRGEEKIVLGNGALVRVVDRGRGAKHPEIGEICMVMPFGKRDQYGFAELVYAYDAPGTIGVMARRTKIRADNLVPVPKGSRHSLLQWATYGRYFTAWDNWKVASKCWRAQLPDVDPADYLVFGWGGGTTLAELQLAKREGFRVAMTASGDKRLADIEKLGITPVDRRRFPHLAYDEERYRSDPEYQAHYRASESAFAEIIGELSGGRGVAIFLDNLGGALYRATMRVIGRTGIVATVGWKTGMRLWNLRATECINRRLHIHTHAWRYDDSEAIRDFQESSDWVGPEPTEIYGFDDVPALASDYVNGKIKTYFPLYQVNPV,not soluble
7,AGSDEVNRNECKTVVPLHTWVLISNFKLSYNILRRADGTFERDLGEYLDRRVPANARPLEGVSSFDHIIDQSVGLEVRIYRAAAEGDAEEGAAAVTRPILEFLTDAPAAEPFPVIIFFHGGSFVHSSASSTIYDSLCRRFVKLSKGVVVSVNYRRAPEHRYPCAYDDGWTALKWVMSQPFMRSGGDAQARVFLSGDSSGGNIAHHVAVRAADEGVKVCGNILLNAMFGGTERTESERRLDGKYFVTLQDRDWYWKAYLPEDADRDHPACNPFGPNGRRLGGLPFAKSLIIVSGLDLTCDRQLAYADALREDGHHVKVVQCENATVGFYLLPNTVHYHEVMEEISDFLNANLYYGSHHHHHHHHHH,soluble
8,MSGAGKKIADVAFKASRTIDWDGMAKVLVTDEARREFSNLRRAFDEVNTQLQTKFSQEPEPIDWDYYRKGIGAGIVDKYKEAYDSIEIPKYVDKVTPEYKPKFDALLVELKEAEQKSLKESERLEKEIADVQEISKKLSTMTADEYFEKHPELKKKFDDEIRNDNWGY,soluble
9,MPKIAKSDRLENVAFEYIKNKITTGEYPTGYRVVEAKLSQELNMSRTPIRRAIINLCHSGFLVHQYNRGAFVQNTEVTITEFFSRMKLVELLVYESTEKLALREDYIVVDDIIEIAEKVIQYEKNREYELMRGAFEDFISTFIGKLNNDYFNRVIQDLWNEINDNATKEVRLIIVSASDRIAEELAHMIEILKSWNYEQLKKCFQHIMNAMILIAF,not soluble
10,MGSDKIHHHHHHMTATDSSILNQYLVGKEPFYQPQHDEVALFEAAYRKRLPVMVKGPTGCGKSRFVEFMAWRLGKPLVTVACNEDMTAADLVGRWLLDKDGTRWQDGPLTVAARYGAICYLDEIVEARQDTTVVIHPLTDHRRTLPLDKKGELIRAHPDFQLVISYNPGYQSLMKDLKQSTKQRFTGFEFDYPNAELEAGILVQETGVAPSIAAQLVTVAATARRLKGHGLDEGISTRLLVYAAMLMDDGVAPRAACRMALVQPITDDADIRATLEHAIDMTFA,not soluble
11,MSLDTSAPQKYRRILLKVSGEVLMGDTPYGIDTNTVQSVAEDVAEIVKSGVELCLVIGGGNIFRGMAGAAKGMERSSADYMGMLATVMNALAMQDALERIGVETRVQSAIPMATVCEPYIRRRAQRHLEKGRVVIFAAGTGNPFFTTDTAAALRAAEMQCDALFKGTSVDGVYTADPKKDPTAQRYDRLSYMDVLAKDLRVMDASAVALMRDSNIPIVVFSIKGRGNLLTVLRGEGTHTVVAEDEGHHHHHH,soluble
12,MISVNDFRTGLTISVDNALWQVLDFQHVKPGKGAAFVRSKLRNLRTGSVQEKTFRAGEKVEKAHIENRRMQYLYASGEAHVFMDNGTYEQIELGEKQIERELKFLKENMEVAIMTYQGEVLGVELPNTVELQVTETEPGIKGDTASNVTKPATLETGLVVQVPIFINEGEMLIINTGEGKYVSRA,not soluble
13,MGSDKIHHHHHHMPSKISQLVTGQKIEVQLSSSNVPARFYSEFIGAVNERWVIVNMPDARKYNDMRDLLQEKTPVIVRFVLENESGEICAFRSEISYVISHPTKMLFIMWPNQIEHRIIRKGRRFDAFLPASVSGQSVKGEENTFRGHVLDVSESGCRLKHEKPEGKIDELWENGSKIVLKIEQKNNGDLTLKAIVRQVKQVDDQLELGVQFMGNQKDEVNSLFSGSLVDIDELSRLESST,not soluble
14,MQQRRPVRRALLSVSDKAGIVEFAQALSARGVELLSTGGTARLLAEKGLPVTEVSDYTGFPEMMDGRVKTLHPKVHGGILGRRGQDDAIMEEHQIQPIDMVVVNLYPFAQTVAREGCSLEDAVENIDIGGPTMVRSAAKNHKDVAIVVKSSDYDAIIKEMDDNEGSLTLATRFDLAIKAFEHTAAYDSMIANYFGSMVPAYHGESKEAAGRFPRTLNLNFIKKLDMRYGENSHQQAAFYIEENVKEASVATATQVQGKALSYNNIADTDAALECVKEFAEPACVIVKHANPCGVAIGNSILDAYDRAYKTDPTSAFGGIIAFNRELDAETAQAIISRQFVEVIIAPSASEEALKITAAKQNVRVLTCGQWGERVPGLDFKRVNGGLLVQDRDLGMVGAEELRVVTKRQPSEQELRDALFCWKVAKFVKSNAIVYAKNNMTIGIGAGQMSRVYSAKIAGIKAADEGLEVKGSSMASDAFFPFRDGIDAAAAAGVTCVIQPGGSIRDDEVIAAADEHGIAMLFTDMRHFRH,soluble
